Measurements: US6407216 (Genentech, dated 2002)

Assays:
[1] = target: T1, rat Smoothened (rSmo), Flag epitope tagged, expressed on transfected cells (rat, UniProt P97698 33-793); test: staining of transfected cells exposed to the ligand
T1 construct: residues 33-793 derived from that statement; Transiently expressed in COS-7 or 293 cells; co-immunoprecipitations were done from cell lysates; also called Flag tagged rSmo
Procedure: (§1) Binding assays were conducted to test binding between cells expressing rSmo or dSmo and (1) epitope tagged SHH-N, (2) an IgG-SHH-N chimera, and (3) an epitope tagged Desert HH. For visualization of SHH binding, COS-7 cells (Genentech, Inc.) transiently expressing rSmo or mPatched (murine Patched) were exposed to epitope tagged SHH-N (2 hours at 4° C.), washed 4 times with PBS, then fixed and stained with a cy3-conjugated anti-human IgG (Jackson ImmunoResearch) (for IgG-SHH-N) or anti-Flag M2 antibody (Kodak/IBI) (for Flag-tagged SHH-N).

[2] = target: T2, Drosophila Smoothened (dSmo), epitope tagged, expressed on transfected cells (Drosophila, UniProt P91682 32-1036); test: as above
T2 construct: cDNA described in Alcedo et al; also called dros.smo
T2 sequence: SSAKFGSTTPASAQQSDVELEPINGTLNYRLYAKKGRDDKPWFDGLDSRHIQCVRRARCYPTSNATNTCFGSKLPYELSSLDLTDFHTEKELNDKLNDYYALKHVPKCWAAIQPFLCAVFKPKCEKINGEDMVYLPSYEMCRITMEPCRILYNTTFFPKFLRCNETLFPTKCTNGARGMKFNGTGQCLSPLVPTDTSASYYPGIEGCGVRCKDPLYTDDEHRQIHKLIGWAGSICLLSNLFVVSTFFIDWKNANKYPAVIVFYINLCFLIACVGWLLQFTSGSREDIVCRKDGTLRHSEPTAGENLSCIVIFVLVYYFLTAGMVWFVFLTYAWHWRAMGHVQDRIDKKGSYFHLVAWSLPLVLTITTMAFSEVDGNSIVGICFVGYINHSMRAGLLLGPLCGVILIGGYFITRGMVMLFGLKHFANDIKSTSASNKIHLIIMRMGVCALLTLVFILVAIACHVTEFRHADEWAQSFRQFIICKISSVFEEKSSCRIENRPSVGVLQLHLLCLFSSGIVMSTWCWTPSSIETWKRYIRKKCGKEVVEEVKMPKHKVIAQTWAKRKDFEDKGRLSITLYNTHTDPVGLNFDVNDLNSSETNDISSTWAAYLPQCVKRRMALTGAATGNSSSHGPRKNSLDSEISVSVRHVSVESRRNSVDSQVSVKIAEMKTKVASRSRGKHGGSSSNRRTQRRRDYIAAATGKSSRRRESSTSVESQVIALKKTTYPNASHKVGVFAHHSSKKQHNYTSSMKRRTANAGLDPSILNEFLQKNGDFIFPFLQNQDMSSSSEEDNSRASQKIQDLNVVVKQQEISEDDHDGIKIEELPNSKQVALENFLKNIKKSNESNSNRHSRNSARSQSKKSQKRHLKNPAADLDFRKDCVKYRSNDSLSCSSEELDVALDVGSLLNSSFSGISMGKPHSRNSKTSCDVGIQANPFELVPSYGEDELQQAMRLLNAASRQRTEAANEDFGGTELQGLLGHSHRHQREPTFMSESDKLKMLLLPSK
Procedure: as §1

T1 sequence (P97698 33-793): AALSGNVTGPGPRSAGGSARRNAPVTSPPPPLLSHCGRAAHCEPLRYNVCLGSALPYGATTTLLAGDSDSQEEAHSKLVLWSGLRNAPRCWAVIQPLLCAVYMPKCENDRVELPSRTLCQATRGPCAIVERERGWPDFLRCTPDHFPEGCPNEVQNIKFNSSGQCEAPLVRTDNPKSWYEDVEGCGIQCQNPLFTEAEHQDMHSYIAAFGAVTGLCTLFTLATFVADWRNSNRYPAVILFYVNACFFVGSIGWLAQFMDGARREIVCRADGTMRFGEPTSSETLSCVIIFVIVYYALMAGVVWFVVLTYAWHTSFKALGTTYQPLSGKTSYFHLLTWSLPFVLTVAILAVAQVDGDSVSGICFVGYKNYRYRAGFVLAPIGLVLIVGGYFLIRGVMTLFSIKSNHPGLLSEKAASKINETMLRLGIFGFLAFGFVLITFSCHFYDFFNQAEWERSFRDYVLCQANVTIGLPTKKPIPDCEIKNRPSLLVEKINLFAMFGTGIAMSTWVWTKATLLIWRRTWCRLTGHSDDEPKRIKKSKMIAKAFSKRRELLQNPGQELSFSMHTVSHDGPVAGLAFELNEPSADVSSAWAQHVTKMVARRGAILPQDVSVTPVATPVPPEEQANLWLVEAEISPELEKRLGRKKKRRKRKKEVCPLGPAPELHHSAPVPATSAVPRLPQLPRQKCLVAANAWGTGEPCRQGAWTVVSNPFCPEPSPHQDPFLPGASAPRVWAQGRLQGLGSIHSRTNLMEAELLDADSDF

B1: epitope tagged Desert HH (ligand, not shown: small tags and cut ends)
chain: not shown
binding result [1]: no binding
binding result [2]: no binding
